Positions count from the first letter of the chain named. “And” between values parts separate entries of the source, which are not always exact repeats. Equal entries are not always repeated.

Assay [1] has as its target T1, human IL-13 (human, UniProt P35225 35-146, biotinylated on the Biacore chip).
T1 construct: also called hIL-13; recombinant human IL-13
Briefly: DOM10 RBA (IL-13 sandwich ELISA per paragraph 473). Here is the method:
(§1) A MAXISORP™ plate (high protein binding ELISA plate, Nunc, Denmark) was coated overnight with 2.5 μg/ml coating antibody (Module Set, Bender MedSystems, Vienna, Austria), then washed once with 0.05% (v/v) Tween 20 in PBS before blocking with 0.5% (w/v) BSA 0.05% (v/v) Tween 20 in PBS. […] The plate was then incubated with TMB substrate (KPL, Gaithersburg, USA), and the reaction was stopped by the addition of HCl and the absorbance read at 450 nm.
These in-line fusions were constructed and expressed as described above. […] After this incubation, the level of cell proliferation was determined.
(In general: An ELISA detects its analyte on a solid surface through an enzyme-linked reagent.)

Assay [2] deals with T2, human IL-4 (human, UniProt P05112 25-153, biotinylated in the receptor binding assay and on the Biacore chip).
T2 sequence (looked up): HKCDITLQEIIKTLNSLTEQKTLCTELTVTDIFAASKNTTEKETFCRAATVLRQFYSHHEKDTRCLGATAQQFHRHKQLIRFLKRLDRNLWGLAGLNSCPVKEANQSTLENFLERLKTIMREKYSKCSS
Briefly: cell-based or functional assay.

The target in a further assay is T3, rhesus IL-4 (rhesus, UniProt P51492 25-153).
T3 sequence (looked up): T2 sequence (looked up) with K2N, D4H, T6A, Q8R, K12E, E26K, V29I, F33L, N111D
As to the kind of experiment: inferred from TF-1 proliferation with rhesus IL-4. As to the method:
The mixture was incubated for 72 hours at 37° C. 5% CO₂. […] 96® reagent (colorometric reagent for determining viability, Promega, Madison, USA) was then added and the number of cells per well was quantified by measuring the absorbance at 490 nm.
A dose-response of the dAb will determine the ND50 in this set up.

The target in assay [3] is T2, human IL-4. Briefly: DOM9 RBA (IL-4 RBA). An excerpt:
(§2) The wells were washed three times with 0.1% (v/v) Tween 20 in PBS, followed by three washes with PBS, before blocking with 2% (w/v) BSA in PBS. […] The reaction was stopped by the addition of HCl and the absorbance read at 450 nm.

Assay [4] deals with T2, human IL-4. As to the kind of experiment: DOM9 RBA (IL-4 RBA). The source holds these as a separate data set.
For assay [5], the target named is T1, human IL-13. As to the kind of experiment: cell-based or functional assay.
In assay [6] the target is T1, human IL-13. As to the kind of experiment: IL-13 sandwich ELISA, competition with coating antibody. As to the method:
as §1

Assay [7] deals with T1, human IL-13. As to the kind of experiment: cell-based or functional assay. This is another data set of the same source.
The target in assay [8] is T1, human IL-13. As to the kind of experiment: IL-13 receptor I RBA: FMAT beads, IL-13R alpha1/Fc. Here is the method:
(§3) The plate was incubated for seven hours before being read in the 8200 cellular detection system (Applied Biosystems).
This molecule was PEGylated via the C terminus using PEG-Maleimide with a branched 40K PEG2-MAL moiety.

In assay [9] the target is T1, human IL-13. As to the kind of experiment: assay not named ('Potency IC50').
The target in assay [10] is T1, human IL-13. Briefly: IL-13 receptor binding assay by the legend; IL-13 sandwich ELISA by paragraph 465.
Assay [11] concerns the target T1, human IL-13. Briefly: IL-13 receptor binding assay (receptor chain not stated).
Assay [12] concerns the target T1, human IL-13. Briefly: IL-13 receptor I RBA: FMAT beads, IL-13R alpha1/Fc. Here is the method:
as §3
The source holds these as a separate data set.

Assay [13] concerns the target T2, human IL-4. As to the kind of experiment: IL-4 RBA: ELISA, IL-4R/Fc coated, biotinylated IL-4.
Description: as §2

For assay [14], the target named is T2, human IL-4. The assay is described as above.
Description: as §2
This is another data set of the same source.

T1 sequence (P35225 35-146 limits assumed): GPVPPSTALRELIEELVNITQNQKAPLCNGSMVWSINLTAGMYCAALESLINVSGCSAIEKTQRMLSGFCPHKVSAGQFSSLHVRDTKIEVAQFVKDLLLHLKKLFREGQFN

B1: DOM10-275-1-DOM9-155-78 (bispecific antibody)
chain: EVQLLESGGGLVQPGGSLRLSCAASGFTFDREEMDWVRQAPGKGLEWVSTISPSGRKTYYADSVKGRFTISRDNSKNTLYLQMNSLRAEDTAVYYCAKAYTGFDYWGQGTLVTVSSASTKGPSDIQMTQSPSSLSASVGDRVTITCRASRHIGDWLHWYQQKPGKAPKLLIAWASTLDSGVPSRFSGSGSGTDFTLTISSLQPEDFATYYCLQEGWGPPTFGQGTKVEIKR
What is called IC50 is the concentration at which inhibition is half-maximal. A high value points to weaker potency in that assay. As to B1, the IC50 with human IL-13 [1] came to 39.2 nM.

B2: DOM9-155-11 (other)
VL: DIQMTQSPSSLSASVGDRVTITCRASRNIGDWLHWYQQKPGKAPKLLIAWASTLDSGVPSRFSGSGSGTDFTLTISSLQPEDFATYYCLQEGWGPPTFGQGTKVEIKR
For the molecule B2, the “average inhibition of HDM induced PBMC proliferation, 100 nM dAb, responding donors” value with human IL-4 [2] amounted to 34%.

B3: DOM9-155-78 (other)
VL: B2 VL with N28H
notes: Vk dAb
Consider B3, for which the binding result with rhesus IL-4 is recorded as “binds”. In addition, the IC50 in the assay with human IL-4 [3] was found to be 0.41 nM; in the assay with human IL-4 [4], 0.456 nM.

B4: DOM9-155-5 (other)
VL: B2 VL with R27L, N28D
notes: Vk dAb
For B4, in the assay with rhesus IL-4, the binding result is “binds”.

B5: DOM10-53-234 (other)
VH: GVQLLESGGGLVQPGGSLRLSCAASGFIFAWYDMGWARQAPGKGLEWVSSIDWHGNVTYYADSVKGRFTISRDNSKNTLYLQMNSLRAEDTAVYYCATAEDEPGYDYWGQGTLVTVSS
notes: VH dAb
For the molecule B5, in the assay with human IL-13 [5], the “ND50, IL-13 induced TF-1 cell proliferation” value came to 43 nM. Also, the half-inhibitory concentration (IC50) with human IL-13 [6] was 0.087 nM and 0.081 nM and 0.04 nM.

B6: DOM10-53-338 30K PEG ALD (other)
VH: B5 VH with G1E, H54R
modifications: 30K PEG-ALD on the N-terminus (alpha-amino group)
notes: also called 30K PEGylated DOM10-53-338 dAb
Regarding B6, the “IC50, IL-13 induced TF-1 proliferation” value with human IL-13 [7] was found to be 0.181 nM. The molecule further returned an IC50 with human IL-13 [8] of 0.169 nM.

B7: DOM10-53-338 (other)
VH: B5 VH with G1E, H54R
notes: VH dAb
For B7, the “IC50, IL-13 induced TF-1 proliferation” value with human IL-13 [7] was 0.423 nM. In addition, in the assay with human IL-13 [8], it took 0.387 nM to reach half-maximal inhibition (IC50).

B8: DOM10-53-344 (other)
VH: B5 VH with A37V, N56E
notes: VH dAb
With B8, the “ND50, IL-13 induced TF-1 cell proliferation” value with human IL-13 [5] came out at 100 nM. The half-inhibitory concentration (IC50) with human IL-13 [9] was 0.1 nM; with human IL-13 [10] it was 0.04 nM.

B9: DOM10-53-338 40K PEG2 NHS (other)
VH: B5 VH with G1E, H54R
modifications: 40K PEG2-NHS on surface lysine residues (positions not stated)
notes: also called 40K PEGylated DOM10-53-338 dAb
Turning to B9, the “IC50, IL-13 induced TF-1 proliferation” value with human IL-13 [7] is 0.231 nM. In addition, it took 0.226 nM to reach half-maximal inhibition with human IL-13 [8] (IC50).

B10: DOM10-53-343 (other)
VH: B5 VH with G1E, N56E
notes: VH dAb
B10: the figures for the half-maximal inhibitory concentration (IC50) in the assay with human IL-13 [11] and in the assay with human IL-13 [8] were 0.23 nM and 0.136 nM, respectively.

B11: DOM10-53 (other)
VH: B5 VH with I28T, W53D, H54S, N56T, V57Q, D101R, E102D, P103D, G104T, Y105F
notes: VH dAb
Regarding B11, the concentration for half-maximal inhibition (IC50) was 100 nM in the assay with human IL-13 [9] and 150 nM with human IL-13 [12].

B12: PEGylated DOM9-112 (AST) DOM10-53-343 (bispecific antibody)
chain: EVQLLESGGGLVQPGGSLRLSCAASGFTFRNYGMAWVRQAPGKGLEWVSWIDASGTETYYADSVKGRFTISRDNSKNTLYLQMNSLRAEDTAVYYCAKSLGRFDYWGQGTLVTVSSASTEVQLLESGGGLVQPGGSLRLSCAASGFIFAWYDMGWARQAPGKGLEWVSSIDWHGEVTYYADSVKGRFTISRDNSKNTLYLQMNSLRAEDTAVYYCATAEDEPGYDYWGQGTLVTVSSC
modifications: 40K PEG2-MAL on the C-terminal cysteine
notes: in-line fusion of two VH dAbs made in Pichia pastoris; also called dual specific ligand
Take B12: the concentration for half-maximal inhibition (IC50) with human IL-4 [13] came to 13 nM; in the assay with human IL-13 [11], 0.31 nM.

B13: DOM9-112-22 (other)
VH: EVQLLESWGGLVQPGGSLRLSCAASGFTFRNYGMAWVRQAPGKGLEWISWIDASGTETYYADPVKGRFTISRDNSKNTLYLQMNSLRAEDTAVYYCAKSLGRFDYWGQGTLVTVSS
Take B13: the “average inhibition of HDM induced PBMC proliferation, 100 nM dAb, responding donors” value with human IL-4 [2] worked out at 23%.

B14: DOM9-112-210 (other)
VH: B13 VH with W8G, Y32F, A35G, I48V, D52I, A53S, P63S
notes: VH dAb
For B14, the IC50 in the assay with human IL-4 [14] amounted to 0.144 nM; with human IL-4 [4] it was 0.391 nM.

B15: DOM9-112-210-DOM10-275-1 (bispecific antibody)
chain: EVQLLESGGGLVQPGGSLRLSCAASGFTFRNFGMGWVRQAPGKGLEWVSWIISSGTETYYADSVKGRFTISRDNSKNTLYLQMNSLRAEDTAVYYCAKSLGRFDYWGQGTLVTVSSASTKGPSEVQLLESGGGLVQPGGSLRLSCAASGFTFDREEMDWVRQAPGKGLEWVSTISPSGRKTYYADSVKGRFTISRDNSKNTLYLQMNSLRAEDTAVYYCAKAYTGFDYWGQGTLVTVSS
Turning to B15, the IC50 in the assay with human IL-13 [1] was 44.9 nM.

B16: DOM10-273 (other)
VH: EVQLLESGGGLVQPGGSLRLSCAASGFTFELEEMDWVRQAPGKGLEWVSSISGSGGSTYYADSVKGRFTISRDNSKNTLYLQMNSLRAEDTAVYYCAKAYTGFDYWGQGTLVTVSS
notes: VH dAb
Molecule B16 had an IC50 with human IL-13 [12] of 600 nM.

B17: DOM10-275 (other)
VH: B16 VH with E30D, L31R, S50T, G53P, G56R, S57K, A99H, Y100G
notes: VH dAb
In the case of B17, in the assay with human IL-13 [12], the midpoint of inhibition, the IC50, lay at 1000 nM.

B18: DOM10-416 (other)
VH: B16 VH with E30K, L31G, E32S, S50T, G53A, S54D, G56R, S57E, A99S, G102S
notes: VH dAb
The molecule B18 had an IC50 with human IL-13 [12] of 6000 nM.

B19: DOM10-276 (other)
VH: B16 VH with E30R, L31D, E32Y, S52G, G53P, G56S, S57E, G102S
notes: VH dAb
Consider B19, for which the half-inhibitory concentration (IC50) with human IL-13 [12] came out at 3000 nM.

B20: DOM9-112 (ASTKGPS) DOM10-53-344 (bispecific antibody)
chain: EVQLLESGGGLVQPGGSLRLSCAASGFTFRNYGMAWVRQAPGKGLEWVSWIDASGTETYYADSVKGRFTISRDNSKNTLYLQMNSLRAEDTAVYYCAKSLGRFDYWGQGTLVTVSSASTKGPSGVQLLESGGGLVQPGGSLRLSCAASGFIFAWYDMGWVRQAPGKGLEWVSSIDWHGEVTYYADSVKGRFTISRDNSKNTLYLQMNSLRAEDTAVYYCATAEDEPGYDYWGQGTLVTVSS
notes: in-line fusion of two VH dAbs; also called dual specific ligand
For B20, the concentration for half-maximal inhibition (IC50) with human IL-4 [13] is roughly 1 nM; with human IL-13 [10] it was 0.12 nM.

B21: DOM10-53-343 40K PEG2 MAL (other)
VH: EVQLLESGGGLVQPGGSLRLSCAASGFIFAWYDMGWARQAPGKGLEWVSSIDWHGEVTYYADSVKGRFTISRDNSKNTLYLQMNSLRAEDTAVYYCATAEDEPGYDYWGQGTLVTVSSC
modifications: branched 40K PEG2-MAL on the C-terminal cysteine
The molecule B21 returned a concentration for half-maximal inhibition (IC50) in the assay with human IL-13 [8] of 0.033 nM.

For the origin of these results see patent US20090060916A1 (published 2009).
